Measured values: IntAct's records for PubMed 22982234

B1: Myosin-binding protein C, cardiac-type (Mus musculus), O70468 (parent)
chain: MPEPGKKPVSAFNKKPRSAEVTAGSAAVFEAETERSGVMVRWQRDGSDITANDKYGLAAEGKRHTLTVRDASPDDQGSYAVIAGSSKVKFDLKVTEPAPPEKAESEVAPGAPEEVPAPATELEESVSSPEGSVSVTQDGSAAEHQGAPDDPIGLFLMRPQDGEVTVGGSIVFSARVAGASLLKPPVVKWFKGKWVDLSSKVGQHLQLHDSYDRASKVYLFELHITDAQTTSAGGYRCEVSTKDKFDSCNFNLTVHEAIGSGDLDLRSAFRRTSLAGAGRRTSDSHEDAGTPDFSSLLKKRDSFRRDSKLEAPAEEDVWEILRQAPPSEYERIAFQHGVEACHRPLKRLKGMKQDEKKSTAFQKKLEPAYQVNKGHKIRLTVELADPDAEVKWLKNGQEIQMSGSKYIFESVGAKRTLTISQCSLADDAAYQCVVGGEKCSTELFVKEPPVLITRSLEDQLVMVGQRVEFECEVSEEGAQVKWLKDGVELTREETFKYRFKKDGRKHHLIINEATLEDAGHYAVRTSGGQSLAELIVQEKKLEVYQSIADLAVGAKDQAVFKCEVSDENVRGVWLKNGKELVPDNRIKVSHIGRVHKLTIDDVTPADEADYSFVPEGFACNLSAKLHFMEVKIDFVPRQEPPKIHLDCPGSTPDTIVVVTGNKLRLDVPISGDPAPTVVWQKTVTQGKKASAGPHPDAPEDAGADEEWVFDKKLLCETEGRVRVETTKDRSVFTVEGAEKEDEGVYTVTVKNPVGEDQVNLTVKVIDVPDAPAAPKISNVGEDSCTVQWEPPAYDGGQPVLGYILERKKKKSYRWMRLNFDLLRELSHEARRMIEGVAYEMRVYAVNAVGMSRPSPASQPFMPIGPPGEPTHLAVEDVSDTTVSLKWRPPERVGAGGLDGYSVEYCQEGCSEWTPALQGLTERRSMLVKDLPTGARLLFRVRAHNVAGPGGPIVTKEPVTVQEILQRPRLQLPRHLRQTIQKKVGEPVNLLIPFQGKPRPQVTWTKEGQPLAGEEVSIRNSPTDTILFIRAARRTHSGTYQVTVRIENMEDKATLILQIVDKPSPPQDIRIVETWGFNVALEWKPPQDDGNTEIWGYTVQKADKKTMEWFTVLEHYRRTHCVVSELIIGNGYYFRVFSHNMVGSSDKAAATKEPVFIPRPGITYEPPKYKALDFSEAPSFTQPLANRSIIAGYNAILCCAVRGSPKPKISWFKNGLDLGEDARFRMFCKQGVLTLEIRKPCPYDGGVYVCRATNLQGEAQCECRLEVRVPQ

Variants of: B1
Conditions: with myh6_mouse Myh6, Q02566
Chain of myh6_mouse Myh6, Q02566 (Q02566 whole entry): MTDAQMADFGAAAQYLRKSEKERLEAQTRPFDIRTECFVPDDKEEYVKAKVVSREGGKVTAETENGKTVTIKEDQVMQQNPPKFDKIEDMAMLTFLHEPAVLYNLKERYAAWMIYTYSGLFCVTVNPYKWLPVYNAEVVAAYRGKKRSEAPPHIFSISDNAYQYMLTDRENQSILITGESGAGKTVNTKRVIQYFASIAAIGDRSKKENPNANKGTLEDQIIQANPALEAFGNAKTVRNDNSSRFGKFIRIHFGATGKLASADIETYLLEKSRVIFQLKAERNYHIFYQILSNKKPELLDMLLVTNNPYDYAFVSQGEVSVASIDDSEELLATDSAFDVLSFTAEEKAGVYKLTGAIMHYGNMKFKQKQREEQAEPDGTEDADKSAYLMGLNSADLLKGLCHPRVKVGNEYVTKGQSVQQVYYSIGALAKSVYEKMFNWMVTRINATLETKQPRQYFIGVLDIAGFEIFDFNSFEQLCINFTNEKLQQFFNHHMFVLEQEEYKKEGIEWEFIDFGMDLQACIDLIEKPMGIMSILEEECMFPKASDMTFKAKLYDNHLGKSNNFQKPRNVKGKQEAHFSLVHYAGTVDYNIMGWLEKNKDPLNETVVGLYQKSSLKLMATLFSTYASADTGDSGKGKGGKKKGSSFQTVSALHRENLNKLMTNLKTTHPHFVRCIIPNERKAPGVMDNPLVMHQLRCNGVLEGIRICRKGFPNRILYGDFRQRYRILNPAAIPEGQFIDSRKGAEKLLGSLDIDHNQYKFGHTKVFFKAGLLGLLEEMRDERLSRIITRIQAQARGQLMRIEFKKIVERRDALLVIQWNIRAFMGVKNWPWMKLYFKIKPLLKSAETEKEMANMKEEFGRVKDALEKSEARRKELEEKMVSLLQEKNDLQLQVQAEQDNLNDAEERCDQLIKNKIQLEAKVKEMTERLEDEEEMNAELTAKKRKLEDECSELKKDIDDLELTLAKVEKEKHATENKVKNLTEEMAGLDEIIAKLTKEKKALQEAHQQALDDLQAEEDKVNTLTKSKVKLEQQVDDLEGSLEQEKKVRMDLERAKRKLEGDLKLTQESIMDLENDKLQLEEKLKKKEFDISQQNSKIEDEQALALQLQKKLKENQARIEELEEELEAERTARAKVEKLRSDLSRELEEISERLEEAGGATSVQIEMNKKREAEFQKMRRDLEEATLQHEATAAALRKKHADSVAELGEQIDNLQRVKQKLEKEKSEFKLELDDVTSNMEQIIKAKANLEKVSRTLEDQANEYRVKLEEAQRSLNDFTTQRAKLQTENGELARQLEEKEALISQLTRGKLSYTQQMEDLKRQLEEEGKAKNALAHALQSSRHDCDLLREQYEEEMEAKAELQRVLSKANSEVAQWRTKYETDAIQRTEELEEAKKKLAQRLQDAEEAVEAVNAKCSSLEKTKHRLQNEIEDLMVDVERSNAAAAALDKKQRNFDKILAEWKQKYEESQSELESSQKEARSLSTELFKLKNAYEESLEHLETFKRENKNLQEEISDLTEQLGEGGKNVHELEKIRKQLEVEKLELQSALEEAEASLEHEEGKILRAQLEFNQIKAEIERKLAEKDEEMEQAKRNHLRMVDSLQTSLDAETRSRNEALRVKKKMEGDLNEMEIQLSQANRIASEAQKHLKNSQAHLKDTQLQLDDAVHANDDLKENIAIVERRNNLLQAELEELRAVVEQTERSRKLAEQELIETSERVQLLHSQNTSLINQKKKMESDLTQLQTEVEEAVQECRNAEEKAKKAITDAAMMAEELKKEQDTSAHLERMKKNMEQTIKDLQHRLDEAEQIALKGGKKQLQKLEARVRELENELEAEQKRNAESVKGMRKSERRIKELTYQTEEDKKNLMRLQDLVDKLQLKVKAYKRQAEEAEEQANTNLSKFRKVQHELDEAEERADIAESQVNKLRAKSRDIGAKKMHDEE

Effect of a mutation on the interaction, disrupting interaction strength:
K298A;K299A
R266A;R270A;R271A
R279A;R280A;T281A
K298A;K299A;R300A

Variants of: B1
Conditions: with actc_mouse Actc1, P68033

Effect of a mutation on the interaction, disrupting interaction strength:
R279A;R280A;T281A
R279A;R280A
K188A;K191A;K193A
R304A;R305A
